Experiment [1] deals with DnaK (protein used for surface plasmon resonance) (Mycoplasma fermentans). Nature of the experiment: SPR; BIAcore T100, 25°C, HBS-EP (10 mM HEPES, 150 mM NaCl, 0.05% surfactant P20, pH 7.4, 3 mM EDTA); DnaK (2220 RU) amine-coupled on CM5 chip, PARP1 as analyte at 35 ul/min, 250 s association, 600 s dissociation; preliminary kinetic analysis. In general terms: SPR reads the build-up and loss of mass on a sensor chip optically.

Experiment [2] shares this target. Put plainly: SPR; BIAcore T100, 25°C, HBS-EP (10 mM HEPES, 150 mM NaCl, 0.05% surfactant P20, pH 7.4, 3 mM EDTA); DnaK (2274.9 RU) amine-coupled on CM5 chip, DnaK as analyte at 35 ul/min, 120 s association, 600 s dissociation; preliminary kinetic analysis; self-binding (homodimer by the paper's words).

One may read the Kd as the free concentration of one partner at which half of the binding sites on the other are occupied at equilibrium, for simple one-to-one binding. A lower Kd goes with higher affinity. In turn, “PARP1 (protein used for surface plasmon resonance) (from UniProt P09874 1-1014) (natural protein)” gave a dissociation constant (Kd) in experiment [1] of 25 nM. This counts as double-digit nanomolar.

Substance “DnaK (protein used for surface plasmon resonance) (natural protein)” came in with a Kd in experiment [2] of 29.6 nM.

The values above are taken from publication PMC9651203.
